Experimental data published in the DeepSol protein solubility set.

Experiment: soluble on expression in E. coli; label from the status in PepcDB or PDB records

| Sequence | soluble on expression in E. coli |
| --- | --- |
| MQVIIISGLSGSGKSIALKVLEDSGYYCVDNLPASLLVVLINHLQTQQHAYVAVAIDMRSGENITVLPWQLKMIDKSIQIKFIFLEARTETLMQRFSETRRRHPLSDKNITLEEAIRREREALATLTGLGHHIDTSSLRPNVLRAFIKDFIADSRSPSQLTLLFQSFGYKHGIPLDADLVFDIRCLPNPFYDPQLKELTGHDPEVIRFMESQPDASKMLRDISSFLGTWLPAYIRDNRAYLTVAIGCTGGQHRSVYFAEKLALHFHDSAHVLVRHRGLAEYKPHYARR | not soluble |
| MQVLSMIFTREILEEAINYGLTKNTTSFTRIKAGIYKTEREKHRDLPSHYIYTACEDASERLDSFNKLKKRGRSYTDRPSVRRVTVHLDDHLWKFSLNVISIATKRGRVCISPIFPKIFWRYYNDNWLIASGARFKLLKGNVVEFFIVFKKDVKSYDPRGFIPVDLNEDSVSVLINGKPILLETNTRMITLGYEYKRRSITNGRSTKDREVRRKLRERDKKLDVRRKFAKLIVKEAFGSRSAIVLEDLPRGVPEHMVKGVKDKQLRLRIYRSAFSSMKNAIVEKAREFGVPVILVDPSYTSSICPVHGSKIIYQPDGGSAPRVGVCGKGGERWHRDVVALYNLRKRAGDVSPVPLGSKESHDPPVVQVVEGLEHHHHHH | soluble |
| MQVPLNSADIDYAQFKDANGQEVLVIADGGKLKAFDGTKVYEIVPAPNESGYPANDLANINNKGLKGCVVHNTRVVIWDGSDTIWHSKIGYYDYFGQTDYQRFVRENDYVQTCVTFAGALLVFMRRHIGVLFGHDVEDWSQGFLDTQNGCINPKTVQTVTHPDGRQEVFYLSDNGVHAVYTIDTIEMDVSNRYSTRSVTEGLIDWKALGVTKDEWKRATAYFYDGRYWLIYPKGSEWRGLVYDTRLQAWFPINNVKANSFYHDEDYFYFAGDDGHLKVFDDTLYSDWNDKNKTSGTPINFYWYSKLLTPKLTGYDHFWDVLMIEAKQFPQKSALDVEVNTYLGRFTQEKAVKTASLVWGVTEWGEAQWQNPFLTEAVNNAKRLPTFLKGQYAQIKLSNNRDEPVEIYSLKYEVRLME | not soluble |
| MQVQAPRRTPKIQQVVEFVESLDDNHRLKGKEDGETYLIEPNAISRIYIENRQVLAETTQGDYHLGLRLYQVLEILPAYFIKISQSEIVNLKEIERFNITPNRLVEIHLKTRKLATHHAVTSKQ | not soluble |
| MQYHRIPHSSLEVSTLGLGTMTFGEQNSEADAHAQLDYAVAQGINLIDVAEMYPVPPRPETQGLTETYVGNWLAKHGSREKLIIASKVSGPSRNNDKGIRPDQALDRKNIREALHDSLKRLQTDYLDLYQVHWPQRPTNCFGKLGYSWTDSAPAVSLLDTLDALAEYQRAGKIRYIGVSNETAFGVMRYLHLADKHDLPRIVTIQNPYSLLNRSFEVGLAEVSQYEGVELLAYSCLGFGTLTGKYLNGAKPAGARNTLFSRFTRYSGEQTQKAVAAYVDIARRHGLDPAQMALAFVRRQPFVASTLLGATTMDQLKTNIESLHLELSEDVLAEIEAVHQVYTYPAP | soluble |
| MQYRRQPCSGVVKFNDAITLIDAGLHDLADRWSPGSFQQFLLTHYHMDHVQGLFPLRWGVGDPIPVYGPPDEQGCDDLFKHPGLLDFSHTVEPFVVFDLQGLQVTPLPLNHSKLTFGYLLETAHSRVAWLSDTAGLPEKTLKFLRNNQPQVMVMDCSHPPRADAPRNHCDLNTVLALNQVIRSPRVILTHISHQFDAWLMENALPSGFEVGFDGMEIGVALEHHHHHH | not soluble |
| MRAEDLFNDPKSYKRWYELHSKLYENERNVVRSFNLKDCLDVGSGPDIFHEEIGGRIVALDISLLMLKESKSDEKVLADALHLPFRDNSFKCVFSSVTVCFIEDVKGFIREMARITKERAIICFIARDSPWGEYYENLGKSGHKYYSHARFISRREFYVIINDFMKISRIRSTLKKMSETEIDGVYNDDSGSFICVEAIPMKPEPLSLSLNRHSGADPADPIS | not soluble |
| MRAELQAETEAERLERQAKLHELLHRLRGEPNVLLPFHQALALRPRGERHLGLRTIEVDKVVGSVDRYEDFDHRFLPKTPHTLERWKRLRALQLAGAEFPPIEVYQVGEAYFVKDGNHRVALAKATGQKFIDAHVIALDVPVPIEPGDTPKDLLLKAEYAHFLEKTRLKDLVPGAEEIRFTALGRYDRLLDHIATRRYFKGLEEGREISWEEAVVDWYENLYKPTVEAIRRLGLLRDFPGRTEADLYLWVMDHRYFLARELGVDPGPEGAAKSYEAHFGGVWKRLGGGLKRLLTGR | soluble |
| MRAFKAHLRGLSPYPYKKEEAPVKLDQNESPFDLPGALKEEALGRLRAIPWNRYPEIHAESLRKRLSALLDWPEEGIVLAPGSNLLILALSLAAEEVLDLRPSFPHYAHAAKVAGTPYRAVPLGEGFSLDLKALLAAFRGGVLFLPNPHAPTGALFPEEALRALAERAKEVGGLLVVDEAYREFAGTDFRFLARENPHVALLRTFSKAFSLGGVRAGYLLGSPEVAGVVREVLPPFVLPAHTGAVLEVVLENPGYVEKVVEEVVAQRERVYRELLAHPTWRPYPSRTNFLLVRTPDAEEAFRHLLSQGVLVRRQDRYPGLAGCLRVTVGRREEMDAFLRAAFGVAYA | soluble |
| MRAFSFRPFFLQALVVMPEYVNWLRHASPYINAHRDCTFVVMLPGDGVAHPNFGNIVHDLVLLHSLGVRLVLVHGSRPQIESRLAQRGITPRYHRDMRITDTETLECVIDAVGQLRISIEARLSMDMAASPMQGSRLRVTSGNVVTARPIGVLEGIDYQHTGEVRRVDRKGINRLLDERHIVLLSPLGYSPTGEIFNLACEDVATRAAIDLAADKLLLFGAETGLLDEQGRLVRELRPQQVPAHLQRLGGNYQAELLDAAAEACRGGVARSHIVSYAEDGALLTELFTRDGGGTLVAQEQFELVREAAIEDVGGLMDLITPLEEQGILVRRSREVLEREITQFSVVEREGLIIACAALYPIADSESGELACLAVNPEYRHGGRGDELLERIENRARALGIKTLFVLTTRTAHWFRERGFEPSSVDRLPSARASLYNFQRNSKIFEKAI | not soluble |
| MRDERLSKIISMFQAHIRGYLIRKAYKKLQDQRIGLSVIQRNIRKWLVLRNWQWWKLYSKVKPLL | soluble |
| MRDIGGSMSSASTSATIVKRSPPNDTSTSSGVSCDVSPNSMTSPSSGSDQNQNNNSLNKCKCCPYGYHIDLGFVSYAQNVSNGFVSRQGTPTNMTLRGNGADRHLMSPLLDNSIFSDSLDNLMSDFDDVLAPHKEVEKKKTVQDIRSRMQGGYNSDYTTYRRGPPEIPRRAHFEQAKPPPLSRPINLGFSGSRSNTPTQRFNAPNGTGNGYSTALAKTISEIRARNAESPFPDSRVGTPIDLGLHQQNNGHVTPSRFANNRYDDLPPTPTPTFRRAPSQGDLPRGFSTAPSTGPGDFASLRRGREFALPPEQEHHSRRFFSASPKLPRRGLQAGPSIDVESHFTYAQTQNGQKVLARTQSTSTSPPPQAPASAFEPVKPLSNGSPSPTHQVQKPIVTRSIAVSTGPLPAPKPCGECAGLRKELFLAVEKIPPPPPESCHVSTSTVLLEFADQSVGSEPIKHCHVALGTEPTSTREVGTVPVTVRSLHIDTQTDPAASTVDAACSPVLFETQEEAVKVTVAASSSAAAADCEECLKRQDVFTRNVGVGACSISDKICVSCDNQVVEADENEAPGFKTDTKDDQKQRDFEIAKANAVKKLLTNEQKSNFQRGTAVSKSARYDRKRSVDDLDYIVDKKNATSPATSSQEAPPTVPDASESPLTTKVVLKKEVFIEPPKQMLPDPIPARIPRPKISKWAVTSEEEAAETPDEQEEAQDRLTPLRSDMRQLGNRWNRNQVTTASNTTPHLPYSGATSQEDVSDSDAESDCSAHSDATFEVNDDVFDAAPFEVSDRLREALENFNSSILEPGSVAEETVEWSAKLVRHVWMTTAGNSSSRYENVDRFVAELGNLGPQILHMVVNFCDQNGNTALHYAVSHANFAVVSSILDSGECDLDAPNRAGYTAVMLAALSQLDDDMEKAVVHRLFQMGNVNAKASQHGQTALMLAVSHGKKTTTELLLACGANVNEQDQDGSTALMCAAEHGHKELVKMLLAENLVNASLTDVDNSTALSIALENDHREIGVMIYAYLNYGRLDISGPTSTI | not soluble |
| MRDRTCVVPGCGATRGLHAHHIRHWQDGGATELANLVLVCPYHHRAHHRGLITITLEHHHHHH | not soluble |
| MREELIEKIKKAGVVGAGGAGFPTHVKVNSKARTVLVNGAECEPLLRVDQQLMAGQASKVVMGLELVMSVTGAKEGIISLKHKYHDAISALEKEISGKPIRIHILDDFYPAGDEHVTVYESTGRLVPQGSIPLKVDCVVHNVETLLNTVDAVADQPVTDTYLTITGEVNQPLTLRLPIGTAISEALAMAGYHDSGGMQVIEGGPMMGKIVADLHQPITKTTKGLIVLPREHPLLRLKTLPADKVLRQSRVSCVQCRFCTDLCPRYLLGHQLEPHKIMRMVNYGQGQEETMKMAFACSECGVCEQYACIMGLSPRAVNALLKKELTRLGIKPSPSPADQAVDPLQPHRKIPVKRLISRLALQDYDRNAPLQERDYPIDRVAIKLCQHVGAPSVPTVKAGQKVKKGDPIASPPAKGLGSYLHASIDGVVQEITDSILISARKGSETQPWNPSV | not soluble |
| MRELVVIFGLSGSGKSFLASILHEKCGYEWLRSDVIRKQLAGLKPEESAKADYGKGIYTKEITKKVYEEMVKRAKELIDRGKKVVLDATFIKRWQRELVLKNFKDPFFILAFAPEEVIKERLKSRKDVSDADWNIYLKQKEEFEAPEEIDYCVINTNKSKEELESRLKKLLGCQLK | not soluble |
| MRERGVAFFSGGKDGLYALYLAEKEGIEVPYLLTLKTSIGLSPHWENLSSLKALAENMGKKLLTFDMKYGSKALAEFISSLDVDYIIAGDVFLEDHLKWINLLAEKAGIKSFEPLWGKNTLELAKEMLNAGFKYSIIAVDKNKLEKTWLGYTFSSTRDIEIFIYENPTIDPLGEGGEFHTITLSSPLFKDEFTLEKISVEESERYWWMRFRVVGNDIKNVRVKGHNSRKDGLEHHHHHH | soluble |
| MREVISIHVGQAGVQIGNACWELYCLEHGIQPDGTMPSDQQADGESFTTFFSDTGNGRYVPRSIFVDLEPTVVDEIRTGTYKKLFHPEQMITGKEDAANNYARGHYTVGKELIDTVLDRIRRLADNCSGLQGFFVFHSFGGGTGSGFTSLLMERLSVDYGKKSKLEFSIYPAPQVSTAVVEPYNSILTTHTTLEHSDCAFMVDNEAIYDICRRNLSVDRPSYTNLNRIISQVVSSITASLRFDGALNVDLNEFQTNLVPYPRIHFPLAAYTPLISADKAYHEALSVNDITNSCFEPANQMVKCDPRHGKYMAVCLLYRGDVVPKDVNTAIAAIKTKRTIQFVDWCPTGFKVGINYQPPTVVPGGDLAKVPRAVCMLSNTTAIAEAWSRLDYKFDLMYAKRAFVHWYVGEGMEEGEFTEAREDLAALEKDYEEVGADSNEGGNEEEGEEY | not soluble |
| MRFLSLLCPPVERAAVMRPPYTTHLQRVPLMRKSLLALSLLAATSAPVLAADYSDGDIHKNDYKWMQFNLMGAFDELPGKSSHDYLEMEFGGRSGIFDLYGYVDVFNLATNKSSDKVGDPKIFMKFAPRMSLDAFTGVDMSFGPVQEVYVASLFEWDGTDFKTNAFSVNNQKIGLGSDVMVPWFGKVGLNLYGTYDGNRKDWNGFQISTNWFKPFYFFENGSFISYQGYIDYQFGLKDEYSTASNGGAMFNGIYWHSDRFAVGYGLKGYKDVYGIKDTDGFKSTGFGHYVAVTYKF | not soluble |
